This is an account of results in US20220226473A1, “Nucleic acid nanocarrier drug and preparation method thereof, pharmaceutical composition and application thereof” (BAI YAO ZHI DA (BEIJING) NANOBIO TECHNOLOGY CO., LTD., priority 2018, published 2022).

Usually IC50 stands for the midpoint of a concentration-inhibition curve.

The nature of data set [1]: Electric potential (zeta potential) measurement of self-assembly products. Type of data set: physicochemical. The note with it: result over 3 detections, at 25 DEG C. The method, then: Measurement method: preparing a potential sample (the self-assembly product is dissolved in ultrapure water) and putting into a sample pool, opening a sample pool cover of an instrument, and placing the instrument;
opening software, clicking a menu MeasUre€ManUal, so a manual measurement parameter setting dialog box appears;
setting a software detection parameter;
and then clicking Ok to complete the settings, after a measurement dialog box appears, clicking start to start.
and then clicking Ok to complete the settings, after a measurement dialog box appears, clicking Start to start.
Measurement method: preparing a potential sample (the self-assembly product is dissolved in ultrapure water) and putting into a sample pool, opening a sample pool cover of an instrument, and placing the instrument:
Measurement result potential detection results of the 7 groups of the extension fragment deformation+core short-sequence RNA nanoparticles at 25 DEG C. are as follows:
setting a software detection parameter; and then
clicking Ok to complete the settings, after a measurement dialog box appears, clicking Start to start.
Measurement result potential detection results of the 7 groups of the extension fragment deformation+core short-sequence DNA nanoparticles at 25 DEG C. are as follows: […]

Data set [2] can be described thus: Particle size measurement (DLS hydrodynamic size). Format: physicochemical. The note with it: DLS hydrodynamic size. From the text:
1. Preparing a potential sample (conventional-sequence DNA self-assembly product D-7) and putting into a sample pool, opening a sample pool cover of an instrument, and placing the instrument;
2. opening software, and clicking a menu, so a manual measurement parameter setting dialog box appears;
3. setting a software detection parameter; and then
4. clicking Ok to complete the settings, when a measurement dialog box appears, clicking Start to start, a DLS measurement value result of a hydrodynamic size of the self-assembly product D-7 is shown below in Table 40: […]

A short description of data set [3]: TM value detection by solubility curve method (SYBR Green I). Type of data set: physicochemical. The note with it: DNA nanoparticles. The method, then:
A solubility curve method is used to detect TM values of the 7 groups of the extension fragment deformation+core short-sequence RNA nanoparticles, and the samples are consistent with the potential samples.
(1) After the sample is diluted with ultrapure water, 5 μg of the diluted sample is mixed with 2 μL of SYBR Green I dye (diluted by 1:200), a final volume is 20 μL, and the dilution concentration is as follows:
(2) It is incubated for 30 min in the dark at a room temperature; and
(3) On-machine detection is performed, a program is set to start at 20 DEG C., the temperature rises per second from 0.1 DEG C. to 95 DEG C., and reading is performed every 5 s.
Due to the particularity of the RNA samples, a temperature corresponding to ½ RFUmax in a range of 20 to 90 DEG C. is used as a sample Tm value in this test.
A solubility curve method is used to detect TM values of the 7 groups of the extension fragment deformation+core short-sequence DNA nanoparticles, and the samples are consistent with the potential samples.
(1) After the sample is diluted with ultrapure water, 5 μg of the diluted sample is mixed with 2 μL of SYBR Green I dye (diluted by 1:200). a final volume is 20 μL, and the dilution concentration is as follows: […]

A short description of data set [4]: Drug loading rate of nucleic acid nanoparticles (chemical loading, absorbance standard curve). The arrangement: unit not given here. Type of data set: physicochemical. The note with it: for doxorubicin loading rate: chemical loading method of Embodiment 5. The text has this: According to the chemical loading method (unless otherwise specified, the method is the same as that of Embodiment 5) of Embodiment 5, the RNA nanoparticles formed by the self-assembly of the previous R-15, R-16, R-17, R-18, R-19, R-20 and R-21 in Embodiment 9, and the DNA nanoparticles formed by the self-assembly of the D-8, D-9, D-10, D-11, D-12, D-13 and D-14 in Embodiment 10 are respectively used as doxorubicin loading carriers, doxorubicin loading rates measured are respectively as follows:
According to the chemical loading method (unless otherwise specified, the method is the same as that of Embodiment 5) of Embodiment 5, the DNA nanoparticles formed by the self-assembly of the previous D-10 and D-14 in Embodiment 10 are used as a daunorubicin loading carrier.
According to a chemical loading method of Embodiment 5 (unless otherwise specified, the method is the same as that of Embodiment 5, the same molar number of the epirubicin is used as a loading amount), nucleic acid nanoparticles (a molecular weight is 29550, it is similar to the RNA nanoparticles in Embodiment 1, and a difference is that a fluorescent label on a c-strand is Cy5) are used as a carrier, and respectively loaded with: epirubicin, methotrexate, pirarubicin, daunorubicin, […], 10-hydroxycamptothecin, aspirin and gemcitabine.
Herein, when a standard curve is drawn, the absorbance of the above drugs on the microplate reader is measured respectively. The absorbance of the epirubicin, methotrexate, pirarubicin, daunorubicin, […], 10-hydroxycamptothecin, aspirin and gemcitabine is respectively detected at the following wavelengths: 492 nm, 303 nm, 492 nm, 492 nm, 265 nm, 384 nm, 225 nm and 268 nm. The standard curves obtained correspondingly are respectively shown in FIG. 48a, FIG. 49, FIG. 50sa, FIG. 51, FIG. 52, FIG. 53, FIG. 54a and FIG. 55. […]

Data set [5] relates to HepG2 cells. Nature of the data set: Cell binding of DNA nanoparticles and carrier drugs by FACS. The note with it: incubated at 37 DEG C. for 2 h, flow cytometry. Format: cell-based. The method, then: 1. A cell state is adjusted to a logarithmic growth phase, the medium is changed into a medium without biotin and folic acid, and it is incubated overnight in an incubator at 37 DEG C.
2. After incubation, cell suspension is trypsinized and collected, and centrifuged at 1000 rpm for 5 min, after the concentration is adjusted, a 2×10^6-5×10^6 cell/EP tube is taken and washed twice with 1 mL/tube of 1% BSA-PBS, and cells at the bottom of the tube is observed to prevent them from being absorbed.
3. A substance to be tested is dissolved, and the substance to be tested is diluted to a use concentration.
4. Cell supernatant is absorbed, 100 μL of a corresponding sample is added to each tube in order, light is avoided, and it is incubated at 37 DEG C. for 2 h.
5. It is washed twice with 1% BSA-PBS; and centrifuged at 1000 rpm for 5 min.
6. Finally, it is precipitated with 300 μL of PBS cell resuspension, and flow Cytometric on-machine detection (the blank carrier used in the present embodiment is labeled by Quasar670, and the doxorubicin in the carrier drug has its own fluorescence, so the detection may be performed through FL4-APC and FL2-PE respectively) is performed.
In general terms: Flow cytometry measures light scatter and fluorescence of single cells or particles in a stream.

Data set [6] deals with HepG2 cells. Nature of the data set: CCK8 toxicity of DNA nanoparticles and carrier drugs. Format: cell-based. The following applies: HepG2, CCK8, 72 hours. The method, then: A CCK8 method is used to detect the toxicity of DNA nanoparticles and carrier drugs to HepG2.
2. A sample to be tested is diluted according to the following table and added: the original culture medium is removed and 100 μL of a culture medium of the sample to be tested with the different concentration is added, and there are 3 replicate wells in each group.
In the present embodiment, the loaded drug and the blank carrier are firstly prepared into 100 μM of stock solution using the PBS, and then diluted with the complete culture medium (biotin-free DMEM). The original drug doxorubicin is firstly prepared into 100 NM of stock solution by using the DMSO, and then diluted with the complete culture medium (biotin-free DMEM). The DMSO is directly diluted with the complete medium (biotin-free DMEM).
3. After the sample to be tested is added, the 96-well plate is placed in an incubator under 37 DEG C. and 5% CO2 and incubated for 72 hours.
4. A kit is taken out and melted at a room temperature, 10 μL of CCK-8 solution is added to each wall, or the CCK8 solution is nixed with the culture medium at a ratio of 1:9, and then added to the well in an amount of 100 μL/well.
5. It is continuously incubated in the cell incubator for 4 hours, and a length of time depends on experimental conditions such as a cell type and a el density.
6. A microplate reader is used to measure an absorbance at 450 nm.
7. Calculation: cell viability (%)=(OD experimental group−OD blank group)[…]/(OD control group−OD blank group), IC50 is calculated by GraphPad Prism 5.0.

{Biotin} = biotin (Bio) of the a-strand; {Bio} = biotin of the strand

B1: D-8: extension fragment deformation+core short-sequence DNA nanoparticle, SEQ ID NO: 141-143, a-strand 3′ biotin (nucleic acid)
chain 1: GCGGCGAGCGGCGAGGAGCGTTGGGGCCGGAGGCCGG
chain 2: CCGGCCTCCGGCCCCTTCGGGGCCAGCCGCC
chain 3: GGCGGCAGGCCCCCATAGCCCTCGCCGCTCGCCGC
modifications: chain 1: DNA, 3' {Biotin}, backbone and methylation of C not given here; chain 2: DNA, backbone and methylation of C not given here; chain 3: DNA, backbone and methylation of C not given here; three-strand DNA nanoparticle carrier
Take B1: the “Potential ZP, Experiment result” value in data set [1] is given as −30.23 mV. Further, the “Mean particle size (nm)” value in data set [2] was 7.460 nm. Besides, the “TM value (° C.)” value in data set [3] is 48.5 °C. Also, the doxorubicin loading rate in data set [4] turned out to be 28.0. In addition, the Positive rate was found to be 96.9% in data set [5] (HepG2, 1 μM) and 98.4% in data set [5] (HepG2, 2 μM). Moreover, the IC50 in data set [6] is over 1000 nM.

B2: D-11: extension fragment deformation+core short-sequence DNA nanoparticle, SEQ ID NO: 150-152, 3′ biotin (nucleic acid)
chain 1: GCGGCGAGCGGCGAGCAGCGTTCGGGCCGGAGGCCGG
chain 2: CCGGCCTCCGGCCCGTTCGGCGCCAGCCGCC
chain 3: GGCGGCAGGCGCCCATAGCGCTCGCCGCTCGCCGC
modifications: chain 1: DNA, 3' {Bio}, backbone not given here; chain 2: DNA, backbone not given here; chain 3: DNA, backbone not given here; three-strand DNA nanoparticle carrier
B2: the “Potential ZP, Experiment result” value in data set [1] is listed as −27.43 mV. In addition, the “Mean particle size (nm)” value in data set [2] was found to be 7.472 nm. For the same molecule, the “TM value (° C.)” value in data set [3] was 48.7 °C. Besides, the doxorubicin loading rate in data set [4] is recorded as 26.8. Further, the Positive rate in data set [5] (HepG2, 1 μM) amounted to 97.7%; in data set [5] (HepG2, 2 μM), 97.8%. Also, in data set [6], the IC50 was over 1000 nM.

B3: D-12: extension fragment deformation+core short-sequence DNA nanoparticle, SEQ ID NO: 153-155, 3′ biotin (nucleic acid)
chain 1: GCGGCGAGCGGCGAGCAGCGTTCGGGCCGGAGGCCGG
chain 2: CCGGCCTCCGGCCCGTTCGGCCCCAGCCGCC
chain 3: GGCGGCAGGGGCCCATAGCGCTCGCCGCTCGCCGC
modifications: chain 1: DNA, 3' {Biotin}, backbone not given here; chain 2: DNA, backbone not given here; chain 3: DNA, backbone not given here; three-strand DNA nanoparticle carrier
In the case of B3, the “Potential ZP, Experiment result” value in data set [1] was −32.50 mV. Moreover, the “Mean particle size (nm)” value in data set [2] was found to be 6.968 nm. For the same molecule, the “TM value (° C.)” value in data set [3] stood at 51.5 °C. The molecule further registered a doxorubicin loading rate in data set [4] of 27.6. Moreover, the Positive rate in data set [5] (HepG2, 1 μM) is listed as 96.9%; in data set [5] (HepG2, 2 μM), 97.1%. In data set [6], this molecule gave an IC50 of over 1000 nM.

B4: D-10: extension fragment deformation+core short-sequence DNA nanoparticle, SEQ ID NO: 147-149, 3′ biotin (nucleic acid)
chain 1: GCGGCGAGCGGCGAGGAGCGTTGGGGCCGGAGGCCGG
chain 2: CCGGCCTCCGGCCCCTTCGCCGCCAGCCGCC
chain 3: GGCGGCAGGCGGCCATAGCCCTCGCCGCTCGCCGC
modifications: chain 1: DNA, 3' {Bio}, backbone not given here; chain 2: DNA, backbone not given here; chain 3: DNA, backbone not given here; three-strand DNA nanoparticle carrier
Take B4: the “Potential ZP, Experiment result” value in data set [1] is −25.77 mV. In data set [2], the “Mean particle size (nm)” value worked out at 7.220 nm. The “TM value (° C.)” value in data set [3] was 54.5~55.0 °C. The same molecule gave a daunorubicin loading rate in data set [4] (absorbance at 492 nm) of 24.0. Besides, in data set [4], the doxorubicin loading rate was 18.9. Besides, the Positive rate in data set [5] (HepG2, 1 μM) is listed as 97.9%; in data set [5] (HepG2, 2 μM), 98.3%. The molecule further displayed an IC50 in data set [6] of over 1000 nM.

B5: D-9: extension fragment deformation+core short-sequence DNA nanoparticle, SEQ ID NO: 144-146, 3′ biotin (nucleic acid)
chain 1: GCGGCGAGCGGCGAGCAGCGTTCGGGCCGGAGGCCGG
chain 2: CCGGCCTCCGGCCCGTTCGCCGCCAGCCGCC
chain 3: GGCGGCAGGCGGCCATAGCGCTCGCCGCTCGCCGC
modifications: chain 1: DNA, 3' {Bio}, backbone and methylation of C not given here; chain 2: DNA, backbone and methylation of C not given here; chain 3: DNA, backbone and methylation of C not given here; three-strand DNA nanoparticle carrier
As for B5, the “Potential ZP, Experiment result” value in data set [1] was −35.07 mV. The “Mean particle size (nm)” value in data set [2] was 7.920 nm. Besides, the “TM value (° C.)” value in data set [3] was found to be 52.5 °C. In addition, the doxorubicin loading rate in data set [4] is given as 27.9. The Positive rate in data set [5] (HepG2, 1 μM) came to 96.7%; in data set [5] (HepG2, 2 μM), 98.1%. Further, in data set [6], the IC50 is over 1000 nM.
